Legend:
R2-IgD4-5 [1] = target: T1, R2-IgD4-5 (human, UniProt P35968); test: cell-based competitive ELISA: R2C9-11 absorbed with the soluble domains, then bound to fixed 293T/VEGFR2 cells, OD405
T1 construct: recombinant fragment; also called immunoglobin-like domains 4-5 of VEGFR2
Protocol: (§1) The optimal concentration of R2C7-1 and R2C9-11 mAbs (200 μg/mL and 50 μg/mL, respectively) were absorbed with the designated doses of the individual immunoglobin-like domains of VEGFR2 (R2-IgDs) antigens. After, the fixed 293T/VEGFR2 cells were incubated with the absorbed antibodies at 37° C. for 30 min. The bound antibodies were probed with goat-anti-mouse IgG conjugated with HRP, visualized by addition of ABTS, and measured at OD₄₀₅ using the SpectraMax microplate reader. Data are represented as means±S.D. of the percentage of isotype control (CTL) in triplicate. The potential epitope locations of R2C7-1 (upper) and R2C9-11 (lower) on the VEGFR2 antigen are indicated by black lines spanning IgD6 and IgD7 in the schematics.
(§2) To define the recognition epitopes of R2C7-1 and R2C9-11 antibodies, cell-based competitive enzyme-linked immunosorbent assay (ELISA) was performed. HEK293T/VEGFR2 transfectants (5 X×10⁴/well) were coated and fixed on 96-well plates. The optimal concentrations, the highest concentration of the log phase, of R2C7-1 and R2C9-11 antibodies for binding to the cells, were determined using a standard ELISA procedure (data not shown). […]
(§3) The epitopes of R2C7-1 and R2C9-11 anti-VEGFR2 antibodies were determined by cell-based competitive ELISA. […]

R3-IgD4 = target: T2, R3-IgD4 (human, UniProt P35916); test: cell-based competitive ELISA: R2C7-1 absorbed with the soluble domain, then bound to 293T/VEGFR3 cells, OD405
T2 construct: recombinant fragment; also called immunoglobin-like domain 4 of VEGFR3
T2 sequence (receptor fragment, looked up): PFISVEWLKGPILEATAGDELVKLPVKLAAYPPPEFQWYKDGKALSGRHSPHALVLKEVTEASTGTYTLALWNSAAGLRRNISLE
Protocol: (§4) Panel A, Cell-based competitive. ELISA. HEK293T cells expressing VEGFR3 (293T/VEGFR3) were coated in 96-well plates. The optimal concentrations of R2C7-1 and R2C9-11 mAbs were determined as described previously (data now shown). The optimal concentrations of R2C7-1 and R2C9-11 mAbs were absorbed with the designed doses of the individual immunoglobin-like domains of VEGFR3 (R3-IgDs) antigens, as indicated. The bound antibodies were immune-probed with secondary antibody conjugated with HRP, visualized by addition of ABTS, and measured at OD₄₀₅ using a microplate reader (SpectraMax). Data are represented as means±S.D. of percentage of isotype control (CTL) in triplicate. The epitope locations of R2C7-1 and R2C9-11 on the VEGFR3 antigen are indicated by the black lines spanning IgD6 in the schematics. Panel B, Native gel electrophoresis. The whole extracellular domain (R3-IgD1-7), domain 3-4 (R3-IgD3-4) and domain 6-7 (R3-IgD6-7) were constructed, expressed in the E. coli, and purified using the anti-Myc affinity purification system. The purity and molecular weight of each recombinant protein were visualized with a standard Western blot using anti-Myc antibody as probe (left). The binding of R2C7-1 and R2C9-11 to the VEGFR3 truncated antigens was evaluated with native gel electrophoresis to confirm the epitopes of R2C7-1 and R2C9-11 mAbs (middle and right, respectively).
(§5) The same methodology was adopted to define the epitopes of the antibodies on VEGFR3. To determine the optimal concentrations of the antibodies for VEGFR3, HEK293T/VEGFR3 transfectants were used as targets (data not shown). Subsequently, the antibodies with optimal concentrations were absorbed with individual recombinant extracellular domains of VEGFR3 (R3-IgDs) for competing the binding epitopes. Similarly, their major epitopes were both located in IgD6, but not in IgD7, of VEGFR3. To conform this finding, Western blotting analysis of different recombinant IgD proteins was carried out using native gel electrophoresis.

R3-IgD7 = target: T3, R3-IgD7 (human, UniProt P35916); test: as above
T3 construct: recombinant fragment; also called immunoglobin-like domain 7 of VEGFR3
T3 sequence (receptor fragment, looked up): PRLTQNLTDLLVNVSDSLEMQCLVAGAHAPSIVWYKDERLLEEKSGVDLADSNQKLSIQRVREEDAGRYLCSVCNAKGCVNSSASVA
Protocol: as §4, §5

R2-IgD4-5 [2] = target: T1, R2-IgD4-5; test: cell-based competitive ELISA: R2C7-1 absorbed with the soluble domains, then bound to fixed 293T/VEGFR2 cells, OD405
Protocol: as §1, §2, §3

T1 sequence (P35968 328-548 limits assumed): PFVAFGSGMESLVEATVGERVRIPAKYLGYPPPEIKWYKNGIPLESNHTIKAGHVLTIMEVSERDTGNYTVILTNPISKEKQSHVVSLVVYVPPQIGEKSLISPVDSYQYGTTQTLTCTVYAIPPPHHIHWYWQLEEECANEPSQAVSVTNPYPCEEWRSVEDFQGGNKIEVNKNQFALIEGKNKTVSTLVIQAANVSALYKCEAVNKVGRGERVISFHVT

B1: R2C9-11 monoclonal antibody (antibody, V domains shown)
VH: QVQLQQPGAELVKPGASVKLSCKASGYTFTSYWMHWVKQRPGQGLEWIGEINPSNGRTNYNEKFKSKATLTVDKSSSTAYMQLSSLTSEDSAVYYCANLYFDVWGAGTTVTVSS
VL: DIVMTQSPSSLSVSAGEKVTMSCKSSQNLLNSGNQKYYLAWYQQKPGQPPKLLIYGASIRESGVPDRFIGSGSGTDFTLTISSVQAEDLAVYFCQSDHSYPYTFGGGTKLEIK
notes: Mouse monoclonal antibody purified from hybridoma supernatant; An IgG2a isotype antibody served as its control; also called R2C9-11 mAb
R2-IgD4-5 [1]
  binding result: no binding (tested: 20 (unit not printed on the sheet))

B2: R2C7-1 monoclonal antibody (antibody, V domains shown)
VH: EVQLQQSGPELVKPGASVKISCKASGYSFTDYFINWVIQRHGKSLEWVGRINPYNGGSFYNQKFKDKATLTVDKSSNIAHMELRSLASEDSAIYYCARSGGNGYDYWGQGTTLTVSS
VL: DIVMTQAAPSVPVIPGESVSISCRSSKSLLHSNGNTYLYWFLQRPGQSPQLLIYRMSNLASGVPDRFSGSGSGTAFTLRISRVEAEDVGVYYCMQHLEYPYTFGGGTKVEIK
notes: Mouse monoclonal antibody purified from hybridoma supernatant; An IgG2a isotype antibody served as its control; also called R2C7-1 mAb
R3-IgD4
  binding result: no binding (tested: 10 (unit not printed on the sheet))
R3-IgD7
  binding result: no binding (tested: 10 (unit not printed on the sheet))
R2-IgD4-5 [2]
  binding result: no binding (tested: 20 (unit not printed on the sheet))

— US20210032353A1 (NATIONAL HEALTH RESEARCH INSTITUTES, published 2021)
